Results on seven molecules are retold here after patent US20160202245A1 (MERZ PHARMA, published 2016).

The target of the assay is T1, non-cleaved SNAP-25206 (UniProt P60880 1-206).
T1 construct: range 1-206
As to the kind of experiment: ELISA and Western blots. (An ELISA detects its analyte on a solid surface through an enzyme-linked reagent.)

B1: mouse monoclonal antibody 20-2-5 (antibody, V domains shown)
VH: EVNLVESGGDLVKPGGSLKLSCAVSGFTFSGYAMSWVRQTPEKRLEWVASIATNGSTYYPDTVKGRFTIFRDNARNILYLQMSSLRSEDTAIYYCTRLRGFDNWGQGTTLTVSS
VL: DVLMTQIPLSLPVSLGDQASISCRSSQNIVHSNGNTYLEWYLQKSGQSPKLLIYKVFKRLSGVPDRFSGSGSGTDFTLRISRVEAEDLGVYYCFQGSHVPYTFGGGTKLEIK
Take B1: the binding result is “no binding”.

B2: mouse monoclonal antibody 6-3-8 (antibody, V domains shown)
VH: EVKLVEFGGGLVEPRGSLKLSCAASGFTFSTYAMSWVRQTPEKRLEWVASIASNGSTYYPDSVRGRFTISRDNARNILYLQMSSLRSEDTAMYYCSRLRGFDYWGQGSTLTVSS
VL: DVLMTQIPLSLPVSLGDQASISCRSSQSIVHSNGNTYLEWYLQKPGQSPSLLIYKVFKRLSGVPDRFSGSGSGTEFTLKINRVEAEDLGVYYCFQGSHVPYTFGGGTKLEIK
For B2, the binding result is recorded as “no binding”.

B3: mouse monoclonal antibody 1-10-4 (antibody, V domains shown)
VH: EVKLVESGGDLVKPGGSLKLSCAVSGFSLNTYAMSWVRQTPEQRLEWVASISTNGSTYHSDSVKGRFTISRYNARNILYLQMSSLRSEDSAIYYCTRLRGFDYWGQGTTLTVSS
VL: DILMTQTPLSLSVSLGDQASISCRSSQNIVHSNGNTYLEWYLQKPGQSPKPLIYKLSKRFSGVPDRFSGSGSGTYFTLKISRVEAEDLGVYYCFQGSHVPYTFGGGTKLEIK
For the molecule B3, the binding result is reported as “no binding”.

B4: mouse monoclonal antibody 18-3-3 (antibody, V domains shown)
VH: EVKLVESGGGLVKPGGSLKLSCAASGFTFRSYAVSWVRQTPEKRLEWVASISTNGSTYYPDSMKGRFTISRDTARNILYLEMNSLRSEDTAMYYCARLRGFDYWGQGTPLTVSS
VL: DVLMTQTPLSLPVSLGDQASISCRSSQSIVHSNGNTYLEWYLQKPGQSPKLLIYKVSKRFSGVPDRFSGSGSGTDFTLKITRVEAEDLGVYYCFQGSHVPYTFGGGTKLEIK
As for B4, the binding result is “no binding”.

B5: mouse monoclonal antibody 14-12-1 (antibody, V domains shown)
VH: EVKLVESGGDLVKPGGSLKLSCAASGFTLSDYAMSWVRQSPEERLEWVASISTNGSTYYPDSVKGRFTISRDNARNILSLQMSSLRSEDTAIYYCTRLRGFDNWGQGTLLTVSS
VL: DVLMTQTPLSLPVSLGDQASISCRSSQNIVHSNGNTYLEWYLQKSGQSPKLLMYKVSKRLSGVPDRFSGRGSGTDFTLKISRVEAEDLGVYYCFQGSHVPYTFGGGTKLEIK
B5: the binding result is recorded as “no binding”.

B6: mouse monoclonal antibody 16-5-4 (antibody, V domains shown)
VH: EVKLVESGGDLVKPGGSLKLSCAASGFTFNTYAMSWVRQTPEKRLEWVASISSNGSTYHPESVKGRFTISRDIARNILNLQMSSLRSEDTAIYYCSRLRGFDYWGQGTTLTVSS
VL: DVLMTQTPLSLPVSLGDQASISCRSSQSIVHSNGNTYLEWYLQKPGQSPKPLIYKVFKRFSGVPDRFSGSGSGTDFTLKISRVEAEDLGVYYCFQGSHVPYTFGGGTKLEIK
In the case of B6, the binding result is “no binding”.

B7: mouse monoclonal antibody 5-10-5 (antibody, V domains shown)
VH: DVQLQESGPGLVKPSQSLSLTCTVTGFSITSDYAWNWIRQFPGNKLEWMGYISYKYGTRYNPSLKGRISITRDTSKNQFFLQLNSLTTEDTAIYYCARRGTDGYGFAYWGQGTLVTVSA
VL: DIVLTQSPASLGVSLGQRATISCRASESVSSSGYSYIHWYQQRPGQPPKLLIFLASNLESGVPARFSGSGSGTDFTLNIHPVEEEDAATYYCQHSRELPLTFGAGTKLELK
For the molecule B7, the binding result was “no binding”.
